From US20240360228A1 (BIOLEGEND, published 2024)
Changes are numbered by the printed parent chain. Values belong to the binder of their own block, whether it stands above or below them.

Legend:
human CCR8 [1] = molecular target: T1, human CCR8 (human, UniProt P51685 1-355); experiment: flow blocking, PBMC CCR8+CD3+; competitor PE-AB10
T1 construct: Native CCR8 on human PBMC (CCR8+ CD3+ or CCR8+ CD4+ lymphocytes); also called chemokine (C-C motif) receptor 8
Description: (§1) For blocking studies, 100 μL of the cell suspension were incubated with 10 μg purified isotype control, AB1, AB2, AB3, AB4, AB5, AB8, AB9, AB10, AB11, AB12, AB13, AB14, AB15, and Commercial ABI antibodies, or isotype control, as blocking agents.
(§2) After incubation with the blocking agent, the cells were incubated with 0.25 μg of the indicated PE-conjugated antibody plus anti-human CD4 APC or anti-human CD3 for another 15 minutes in the dark and then washed 2 times with Cell Staining Buffer, and acquired in a FACSCanto II flow cytometer (BD Biosciences); the data was analyzed using FCS Express (De Novo Software); MFI correspond to the CCR8+ CD4+ lymphocytes or CCR8+ CD3+ lymphocytes.
(§3) Percentage original MFI was calculated by dividing the MFI of samples blocked with AB1, AB2, AB3, AB4, AB5, AB6, AB7, AB8, AB9, AB10, AB11, AB12, AB13, AB14, AB15, and Commercial ABI antibodies, by the MFI of samples blocked with the corresponding isotype control. This value was subtracted from 100 to get a blocking percentage. The formula is shown below: […]

human CCR8 [2] = molecular target: T1, human CCR8; experiment: flow blocking, PBMC CCR8+CD3+; competitor PE-AB8
Description: as §1, §2, §3

human CCR8 [3] = molecular target: T1, human CCR8; experiment: flow blocking, PBMC CCR8+CD3+; competitor PE-L263G8
Description: as §1, §2, §3

human CCR8 [4] = molecular target: T1, human CCR8; experiment: flow blocking, PBMC CCR8+CD3+; competitor PE-AB11
Description: as §1, §2, §3

human CCR8 [5] = molecular target: T1, human CCR8; experiment: flow blocking, PBMC CCR8+CD3+; competitor PE-AB14
Description: as §1, §2, §3

human CCR8 [6] = molecular target: T1, human CCR8; experiment: flow blocking, PBMC CCR8+CD3+; competitor PE-AB13
Description: as §1, §2, §3

human CCR8 [7] = molecular target: T1, human CCR8; experiment: flow blocking, PBMC CCR8+CD3+; competitor PE-AB12
Description: as §1, §2, §3

human CCR8 [8] = molecular target: T1, human CCR8; experiment: flow blocking, PBMC CCR8+CD3+; competitor PE-AB15
Description: as §1, §2, §3

human CCR8 [9] = molecular target: T1, human CCR8; experiment: flow blocking, PBMC CCR8+CD3+; competitor PE-433H
Description: as §1, §2, §3

human CCR8 [10] = molecular target: T1, human CCR8; experiment: flow blocking, PBMC CCR8+CD3+; competitor PE-AB7
Description: as §1, §2, §3

human CCR8 [11] = molecular target: T1, human CCR8; experiment: flow blocking, PBMC CCR8+CD3+; competitor PE-AB5
Description: as §1, §2, §3

human CCR8 [12] = molecular target: T1, human CCR8; experiment: flow blocking, PBMC CCR8+CD3+; competitor PE-AB6
Description: as §1, §2, §3

human CCR8 [13] = molecular target: T1, human CCR8; experiment: flow blocking, PBMC CCR8+CD4+; competitor PE-433H
Description: as §1, §2

human CCR8 [14] = molecular target: T1, human CCR8; experiment: flow blocking, PBMC CCR8+CD4+; competitor PE-AB13
Description: as §1, §2

human CCR8 [15] = molecular target: T1, human CCR8; experiment: flow blocking, PBMC CCR8+CD4+; competitor PE-AB12
Description: as §1, §2, §3

human CCR8 [16] = molecular target: T1, human CCR8; experiment: flow blocking, PBMC CCR8+CD4+; competitor PE-AB14
Description: as §1, §2

human CCR8 [17] = molecular target: T1, human CCR8; experiment: flow blocking, PBMC CCR8+CD4+; competitor PE-AB5
Description: as §1, §2, §3

human CCR8 [18] = molecular target: T1, human CCR8; experiment: flow blocking, PBMC CCR8+CD4+; competitor PE-AB4
Description: as §1, §2, §3

human CCR8 [19] = molecular target: T1, human CCR8; experiment: flow blocking, PBMC CCR8+CD4+; competitor PE-AB1
Description: as §1, §2, §3

human CCR8 [20] = molecular target: T1, human CCR8; experiment: flow blocking, PBMC CCR8+CD4+; competitor PE-AB11
Description: as §1, §2, §3

human CCR8 [21] = molecular target: T1, human CCR8; experiment: flow blocking, PBMC CCR8+CD4+; competitor PE-AB10
Description: as §1, §2, §3

human CCR8 [22] = molecular target: T1, human CCR8; experiment: flow blocking, PBMC CCR8+CD4+; competitor PE-AB15
Description: as §1, §2, §3

human CCR8 [23] = molecular target: T1, human CCR8; experiment: flow blocking, PBMC CCR8+CD4+; competitor PE-AB2
Description: as §1, §2, §3

human CCR8 [24] = molecular target: T1, human CCR8; experiment: flow blocking, PBMC CCR8+CD4+; competitor PE-AB6
Description: as §1, §2

human CCR8 [25] = molecular target: T1, human CCR8; experiment: flow blocking, PBMC CCR8+CD4+; competitor PE-AB3
Description: as §1, §2, §3

T1 sequence (P51685 whole entry): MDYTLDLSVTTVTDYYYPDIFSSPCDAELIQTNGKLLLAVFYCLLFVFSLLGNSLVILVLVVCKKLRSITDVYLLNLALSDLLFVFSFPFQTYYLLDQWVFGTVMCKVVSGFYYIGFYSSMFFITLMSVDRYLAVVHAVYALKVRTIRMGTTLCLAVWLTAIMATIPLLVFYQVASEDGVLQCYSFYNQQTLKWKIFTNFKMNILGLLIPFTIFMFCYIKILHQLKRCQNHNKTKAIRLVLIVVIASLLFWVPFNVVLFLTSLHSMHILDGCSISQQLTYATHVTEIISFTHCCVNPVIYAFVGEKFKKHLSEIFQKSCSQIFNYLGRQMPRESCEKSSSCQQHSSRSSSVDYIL

B2: AB5 (antibody, V domains shown)
VH: QVQLKESGPGLVQPSQTLSLTCTVSGFSLTSYHVSWVRQPPGKGLEWMGVIWTGGSTTYNSLLKSRLSISRDISKSQVFLKMNSLQTEDTATYYCARGGTVVKGGFAYWGQGTLVTVSS
VL: DIQMTQSPASLSASLEEIVTITCQASQDIGNRLSWYQQKPGKSPQLLIYGATSLADGVPSRFSGSRSGTQYSLKISRLQVEDIGIYYCLQAYSTPLTFGSGTKLEIK
notes: Hybridoma monoclonal; Same VH/VL entries as AB6; also called antibody 5; clone 5
% Blocking (human CCR8 [13]): 12.5% | % Positive cells (human CCR8 [13]): 1.54% | % Blocking (human CCR8 [14]): 27.8% | % Positive cells (human CCR8 [14]): 1.43% | % Blocking (human CCR8 [1]): -20.7% | MFI (human CCR8 [1]): 962 | % Blocking (human CCR8 [15]): 0% | % Positive cells (human CCR8 [15]): 1.8% | % Blocking (human CCR8 [2]): 5.47% | MFI (human CCR8 [2]): 1120 | % Blocking (human CCR8 [3]): -14.2% | MFI (human CCR8 [3]): 769 | % Blocking (human CCR8 [16]): -25.4% | % Positive cells (human CCR8 [16]): 1.63% | % Blocking (human CCR8 [4]): -9.7% | MFI (human CCR8 [4]): 1020 | % Blocking (human CCR8 [5]): 0.46% | MFI (human CCR8 [5]): 860 | % Blocking (human CCR8 [6]): -7.01% | MFI (human CCR8 [6]): 947 | % Blocking (human CCR8 [17]): 91.1% | % Positive cells (human CCR8 [17]): 0.18% | % Blocking (human CCR8 [7]): -11.3% | MFI (human CCR8 [7]): 1140 | % Blocking (human CCR8 [8]): -1.63% | MFI (human CCR8 [8]): 873 | % Blocking (human CCR8 [9]): -5.58% | MFI (human CCR8 [9]): 936 | % Blocking (human CCR8 [18]): 93.3% | % Positive cells (human CCR8 [18]): 0.12% | % Blocking (human CCR8 [10]): -3.38% | MFI (human CCR8 [10]): 1210 | % Blocking (human CCR8 [11]): 14.8% | MFI (human CCR8 [11]): 840 | % Blocking (human CCR8 [19]): 72.3% | % Positive cells (human CCR8 [19]): 0.43% | % Blocking (human CCR8 [20]): -6.12% | % Positive cells (human CCR8 [20]): 2.08% | % Blocking (human CCR8 [21]): 5.41% | % Positive cells (human CCR8 [21]): 1.4% | % Blocking (human CCR8 [22]): -29.5% | % Positive cells (human CCR8 [22]): 1.67% | % Blocking (human CCR8 [12]): 37.3% | MFI (human CCR8 [12]): 579 | % Blocking (human CCR8 [23]): 98.8% | % Positive cells (human CCR8 [23]): 0.02% | % Blocking (human CCR8 [24]): 95.5% | % Positive cells (human CCR8 [24]): 0.09% | % Blocking (human CCR8 [25]): 95.9% | % Positive cells (human CCR8 [25]): 0.07%

B4: AB2 (antibody, V domains shown)
VH: QVQLKESGPGLVKPSETLSLTCTVSGFSLTSYHISWVRQPPGKGLEWMGVIWGDGSKTYNSALKSRLSISRDTSKSQVFLKMRSLKTEDTATYYCARGGDSGFAYWGQGTLVTVSS
VL: B2 VL with R32W, A51T, S53N, T94V
notes: Hybridoma monoclonal; Same VH/VL entries as AB1; also called antibody 2; clone 2
% Blocking (human CCR8 [13]): 2.84% | % Positive cells (human CCR8 [13]): 1.71% | % Blocking (human CCR8 [14]): -6.06% | % Positive cells (human CCR8 [14]): 2.1% | % Blocking (human CCR8 [15]): -8.89% | % Positive cells (human CCR8 [15]): 1.96% | % Blocking (human CCR8 [16]): -15.4% | % Positive cells (human CCR8 [16]): 1.5% | % Blocking (human CCR8 [17]): 90.1% | % Positive cells (human CCR8 [17]): 0.2% | % Blocking (human CCR8 [18]): 96.6% | % Positive cells (human CCR8 [18]): 0.06% | % Blocking (human CCR8 [19]): 93.5% | % Positive cells (human CCR8 [19]): 0.1% | % Blocking (human CCR8 [20]): -3.57% | % Positive cells (human CCR8 [20]): 2.03% | % Blocking (human CCR8 [21]): 2.7% | % Positive cells (human CCR8 [21]): 1.44% | % Blocking (human CCR8 [22]): -18.6% | % Positive cells (human CCR8 [22]): 1.53% | % Blocking (human CCR8 [23]): 98.8% | % Positive cells (human CCR8 [23]): 0.02% | % Blocking (human CCR8 [24]): 93.6% | % Positive cells (human CCR8 [24]): 0.13% | % Blocking (human CCR8 [25]): 98.2% | % Positive cells (human CCR8 [25]): 0.03%

Next, values leading:

% Blocking (human CCR8 [1]): 12.2% | MFI (human CCR8 [1]): 700 | % Blocking (human CCR8 [2]): 26.6% | MFI (human CCR8 [2]): 873 | % Blocking (human CCR8 [3]): 0.82% | MFI (human CCR8 [3]): 668 | % Blocking (human CCR8 [4]): 53.2% | MFI (human CCR8 [4]): 434 | % Blocking (human CCR8 [5]): 28.5% | MFI (human CCR8 [5]): 618 | % Blocking (human CCR8 [6]): -0.34% | MFI (human CCR8 [6]): 888 | % Blocking (human CCR8 [7]): 49.1% | MFI (human CCR8 [7]): 520 | % Blocking (human CCR8 [8]): 23.2% | MFI (human CCR8 [8]): 660 | % Blocking (human CCR8 [9]): 45.2% | MFI (human CCR8 [9]): 486 | % Blocking (human CCR8 [10]): 47.3% | MFI (human CCR8 [10]): 616 | % Blocking (human CCR8 [11]): -6.64% | MFI (human CCR8 [11]): 1050 | % Blocking (human CCR8 [12]): -23.2% | MFI (human CCR8 [12]): 1140
B1: AB7 (antibody, V domains shown)
VH: AVQLVESGGGLVQPKESLKISCAASGFTFSYAAMYWVRQTPGKGLEWVARIRTKPNNYATYYADSVKGRFTISRDDSKSMVYLQMDNLKSEDTAMYYCNIMGITRGYYFDYWGQGVMVTVSS
VL: DIQMTQSPSFLSASVGDRVTINCKASQNINRYLNWYQQQLGEAPKLLIYNANNLQTGIPSRFSGSRSGTDFTLTISSLQPEDVATYFCLQHNSWPWTFGGGTKLELK
notes: Hybridoma monoclonal; also called antibody 7; clone 7

% Blocking (human CCR8 [1]): -11.6% | MFI (human CCR8 [1]): 890 | % Blocking (human CCR8 [2]): 33.8% | MFI (human CCR8 [2]): 787 | % Blocking (human CCR8 [3]): -16.3% | MFI (human CCR8 [3]): 783 | % Blocking (human CCR8 [4]): -18.3% | MFI (human CCR8 [4]): 1100 | % Blocking (human CCR8 [5]): 3.88% | MFI (human CCR8 [5]): 831 | % Blocking (human CCR8 [6]): 2.54% | MFI (human CCR8 [6]): 862 | % Blocking (human CCR8 [7]): -3.13% | MFI (human CCR8 [7]): 1050 | % Blocking (human CCR8 [8]): 13.3% | MFI (human CCR8 [8]): 745 | % Blocking (human CCR8 [9]): 10.7% | MFI (human CCR8 [9]): 792 | % Blocking (human CCR8 [10]): 32.7% | MFI (human CCR8 [10]): 786 | % Blocking (human CCR8 [11]): 0.71% | MFI (human CCR8 [11]): 979 | % Blocking (human CCR8 [12]): -4.93% | MFI (human CCR8 [12]): 969
B3: AB6 (antibody, V domains shown)
VH: B2 VH
VL: B2 VL
notes: Hybridoma monoclonal; Same VH/VL entries as AB5; also called antibody 6; clone 6
